Test system: SARS-CoV-2 gRNA and sgRNAs
Format: binding
Conditions: for target (unweighted spectral count of the protein in the RNP capture experiment): LC-MS/MS label-free quantification, probe pool not given; for back-ground (unweighted spectral count of the protein in the control experiment): protein background of the control (e.g. no-probe) experiment; for target (unweighted spectral count in RNP capture): Probe II capture, LC-MS/MS LFQ; for background (unweighted spectral count in control): no-probe control pull-down, used as background for Probe II

Molecule | target (unweighted spectral count of the protein in the RNP capture experiment) | back-ground (unweighted spectral count of the protein in the control experiment) | target (unweighted spectral count in RNP capture) | background (unweighted spectral count in control)
CRIP2 (protein, UniProt P52943 1-208, looked up) Cysteine-rich protein 2: MASKCPKCDKTVYFAEKVSSLGKDWHKFCLKCERCSKTLTPGGHAEHDGKPFCHKPCYATLFGPKGVNIGGAGSYIYEKPLAEGPQVTGPIEVPAARAEERKASGPPKGPSRASSVTTFTGEPNTCPRCSKKVYFAEKVTSLGKDWHRPCLRCERCGKTLTPGGHAEHDGQPYCHKPCYGILFGPKGVNTGAVGSYIYDRDPEGKVQP | 6 | 1 | – | –
HRNPR (protein, UniProt O43390 2-633, looked up) Heterogeneous nuclear …: ANQVNGNAVQLKEEEEPMDTSSVTHTEHYKTLIEAGLPQKVAERLDEIFQTGLVAYVDLDERAIDALREFNEEGALSVLQQFKESDLSHVQNKSAFLCGVMKTYRQREKQGSKVQESTKGPDEAKIKALLERTGYTLDVTTGQRKYGGPPPDSVYSGVQPGIGTEVFVGKIPRDLYEDELVPLFEKAGPIWDLRLMMDPLSGQNRGYAFITFCGKEAAQEAVKLCDSYEIRPGKHLGVCISVANNRLFVGSIPKNKTKENILEEFSKVTEGLVDVILYHQPDDKKKNRGFCFLEYEDHKSAAQARRRLMSGKVKVWGNVVTVEWADPVEEPDPEVMAKVKVLFVRNLATTVTEEILEKSFSEFGKLERVKKLKDYAFVHFEDRGAAVKAMDEMNGKEIEGEEIEIVLAKPPDKKRKERQAARQASRSTAYEDYYYHPPPRMPPPIRGRGRGGGRGGYGYPPDYYGYEDYYDDYYGYDYHDYRGGYEDPYYGYDDGYAVRGRGGGRGGRGAPPPPRGRGAPPPRGRAGYSQRGAPLGPPRGSRGGRGGPAQQQRGRGSRGSRGNRGGNVGGKRKADGYNQPDSKRRQTNNQQNWGSQPIAQQPLQQGGDYSGNYGYNNDNQEFYQDTYGQQWK | – | – | 32 | 1
ACLY (protein, UniProt P53396 1-1101, looked up) ATP-citrate synthase: MSAKAISEQTGKELLYKFICTTSAIQNRFKYARVTPDTDWARLLQDHPWLLSQNLVVKPDQLIKRRGKLGLVGVNLTLDGVKSWLKPRLGQEATVGKATGFLKNFLIEPFVPHSQAEEFYVCIYATREGDYVLFHHEGGVDVGDVDAKAQKLLVGVDEKLNPEDIKKHLLVHAPEDKKEILASFISGLFNFYEDLYFTYLEINPLVVTKDGVYVLDLAAKVDATADYICKVKWGDIEFPPPFGREAYPEEAYIADLDAKSGASLKLTLLNPKGRIWTMVAGGGASVVYSDTICDLGGVNELANYGEYSGAPSEQQTYDYAKTILSLMTREKHPDGKILIIGGSIANFTNVAATFKGIVRAIRDYQGPLKEHEVTIFVRRGGPNYQEGLRVMGEVGKTTGIPIHVFGTETHMTAIVGMALGHRPIPNQPPTAAHTANFLLNASGSTSTPAPSRTASFSESRADEVAPAKKAKPAMPQDSVPSPRSLQGKSTTLFSRHTKAIVWGMQTRAVQGMLDFDYVCSRDEPSVAAMVYPFTGDHKQKFYWGHKEILIPVFKNMADAMRKHPEVDVLINFASLRSAYDSTMETMNYAQIRTIAIIAEGIPEALTRKLIKKADQKGVTIIGPATVGGIKPGCFKIGNTGGMLDNILASKLYRPGSVAYVSRSGGMSNELNNIISRTTDGVYEGVAIGGDRYPGSTFMDHVLRYQDTPGVKMIVVLGEIGGTEEYKICRGIKEGRLTKPIVCWCIGTCATMFSSEVQFGHAGACANQASETAVAKNQALKEAGVFVPRSFDELGEIIQSVYEDLVANGVIVPAQEVPPPTVPMDYSWARELGLIRKPASFMTSICDERGQELIYAGMPITEVFKEEMGIGGVLGLLWFQKRLPKYSCQFIEMCLMVTADHGPAVSGAHNTIICARAGKDLVSSLTSGLLTIGDRFGGALDAAAKMFSKAFDSGIIPMEFVNKMKKEGKLIMGIGHRVKSINNPDMRVQILKDYVRQHFPATPLLDYALEVEKITTSKKPNLILNVDGLIGVAFVDMLRNCGSFTREEADEYIDIGALNGIFVLGRSMGFIGHYLDQKRLKQGLYRHPWDDISYVLPEHMSM | 6 | 1 | – | –
NUFIP2 (protein, UniProt Q7Z417 1-695, looked up) FMR1-interacting protein …: MEEKPGQPQPQHHHSHHHPHHHPQQQQQQPHHHHHYYFYNHSHNHHHHHHHQQPHQYLQHGAEGSPKAQPKPLKHEQKHTLQQHQETPKKKTGYGELNGNAGEREISLKNLSSDEATNPISRVLNGNQQVVDTSLKQTVKANTFGKAGIKTKNFIQKNSMDKKNGKSYENKSGENQSVDKSDTIPIPNGVVTNNSGYITNGYMGKGADNDGSGSESGYTTPKKRKARRNSAKGCENLNIVQDKIMQQETSVPTLKQGLETFKPDYSEQKGNRVDGSKPIWKYETGPGGTSRGKPAVGDMLRKSSDSKPGVSSKKFDDRPKGKHASAVASKEDSWTLFKPPPVFPVDNSSAKIVPKISYASKVKENLNKTIQNSSVSPTSSSSSSSSTGETQTQSSSRLSQVPMSALKSVTSANFSNGPVLAGTDGNVYPPGGQPLLTTAANTLTPISSGTDSVLQDMSLTSAAVEQIKTSLFIYPSNMQTMLLSTAQVDLPSQTDQQNLGDIFQNQWGLSFINEPSAGPETVTGKSSEHKVMEVTFQGEYPATLVSQGAEIIPSGTEHPVFPKAYELEKRTSPQVLGSILKSGTTSESGALSLEPSHIGDLQKADTSSQGALVFLSKDYEIESQNPLASPTNTLLGSAKEQRYQRGLERNDSWGSFDLRAAIVYHTKEMESIWNLQKQDPKRIITYNEAMDSPDQ | – | – | 10 | 1
BICC1 (protein, UniProt Q9H694 1-974, looked up) Protein bicaudal C homolog 1: MAAQGEPGYLAAQSDPGSNSERSTDSPVPGSEDDLVAGATLHSPEWSEERFRVDRKKLEAMLQAAAEGKGRSGEDFFQKIMEETNTQIAWPSKLKIGAKSKKDPHIKVSGKKEDVKEAKEMIMSVLDTKSNRVTLKMDVSHTEHSHVIGKGGNNIKKVMEETGCHIHFPDSNRNNQAEKSNQVSIAGQPAGVESARVRIRELLPLVLMFELPIAGILQPVPDPNSPSIQHISQTYNISVSFKQRSRMYGATVIVRGSQNNTSAVKEGTAMLLEHLAGSLASAIPVSTQLDIAAQHHLFMMGRNGSNIKHIMQRTGAQIHFPDPSNPQKKSTVYLQGTIESVCLARQYLMGCLPLVLMFDMKEEIEVDPQFIAQLMEQLDVFISIKPKPKQPSKSVIVKSVERNALNMYEARKCLLGLESSGVTIATSPSPASCPAGLACPSLDILASAGLGLTGLGLLGPTTLSLNTSTTPNSLLNALNSSVSPLQSPSSGTPSPTLWAPPLANTSSATGFSAIPHLMIPSTAQATLTNILLSGVPTYGHTAPSPPPGLTPVDVHINSMQTEGKKISAALNGHAQSPDIKYGAISTSSLGEKVLSANHGDPSIQTSGSEQTSPKSSPTEGCNDAFVEVGMPRSPSHSGNAGDLKQMMCPSKVSCAKRQTVELLQGTKNSHLHSTDRLLSDPELSATESPLADKKAPGSERAAERAAAAQQNSERAHLAPRSSYVNMQAFDYEQKKLLATKAMLKKPVVTEVRTPTNTWSGLGFSKSMPAETIKELRRANHVSYKPTMTTTYEGSSMSLSRSNSREHLGGGSESDNWRDRNGIGPGSHSEFAASIGSPKRKQNKSTEHYLSSSNYMDCISSLTGSNGCNLNSSFKGSDLPELFSKLGLGKYTDVFQQQEIDLQTFLTLTDQDLKELGITTFGARRKMLLAISELNKNRRKLFESPNARTSFLEGGASGRLPRQYHSDIASVSGRW | – | – | 11 | 1
CAPRIN1 (protein, UniProt Q14444 2-709, looked up) Caprin-1: PSATSHSGSGSKSSGPPPPSGSSGSEAAAGAGAAAPASQHPATGTGAVQTEAMKQILGVIDKKLRNLEKKKGKLDDYQERMNKGERLNQDQLDAVSKYQEVTNNLEFAKELQRSFMALSQDIQKTIKKTARREQLMREEAEQKRLKTVLELQYVLDKLGDDEVRTDLKQGLNGVPILSEEELSLLDEFYKLVDPERDMSLRLNEQYEHASIHLWDLLEGKEKPVCGTTYKVLKEIVERVFQSNYFDSTHNHQNGLCEEEEAASAPAVEDQVPEAEPEPAEEYTEQSEVESTEYVNRQFMAETQFTSGEKEQVDEWTVETVEVVNSLQQQPQAASPSVPEPHSLTPVAQADPLVRRQRVQDLMAQMQGPYNFIQDSMLDFENQTLDPAIVSAQPMNPTQNMDMPQLVCPPVHSESRLAQPNQVPVQPEATQVPLVSSTSEGYTASQPLYQPSHATEQRPQKEPIDQIQATISLNTDQTTASSSLPAASQPQVFQAGTSKPLHSSGINVNAAPFQSMQTVFNMNAPVPPVNEPETLKQQNQYQASYNQSFSSQPHQVEQTELQQEQLQTVVGTYHGSPDQSHQVTGNHQQPPQQNTGFPRSNQPYYNSRGVSRGGSRGARGLMNGYRGPANGFRGGYDGYRPSFSNTPNSGYTQSQFSAPRDYSGYQRDGYQQNFKRGSGQSGPRGAPRGRGGPPRPNRGMPQMNTQQVN | – | – | 10 | 1
FAM120C (protein, UniProt Q9NX05 1-1096, looked up) Constitutive coactivator of …: MGVQGFQEFLEKRCPGAVVPVDLLKLARTVSRQQQQQHLHRQLPPTAALAPGAPRAARGSVPLQPPLPPAALGAYSGGAGPTRHHHPAHHFHHHGQAQPGLHPPLPPPPPPQLPGARVLVDAGSALPRLYGGYQTDWVCGGQWNAMLGYLSALCQACAYPGGDGLELVVMFPGGLGKDRLAEWGRRCQAERQTAQLIVGHVGNKGTPPPRAWFLPPACLSHCVRLALIRFRVKVFQSLEDHHLEVVAFFRENGFHGLLAHDSEYALYNIPSYYSSHALKLSWNGKNLTTNQFLMQEVAKQLGLKRMNFPIFAALLGNHILPDEDLAAFHWSLLGPEHPLASLKVRAHQLVLPPCDVVIKAVSEYVSSIKDPSNLDVVGKDVFKQSQSRTEDKIERFKKAVEYYSVTTKLSSLPVGPSFLGFRNNRLGNPPLPRNQVGTISAGKPMFSHQVPQKVKYPPPFPVGPNSSLLFSSHALGESHAFSEDPMLQNSPFANWAVSYDSSASQFPNYLPSKASPPLGPDSSHSSSSDGDEPNGASSDHITEAFHHQPEWGNPNRDRGSWAQPVDTGVSEASLGDGEPHIPSLLSMSTRNHMDITIPPLPPVAPEVLRVAEHRHRRGLMYPYIYHVLTKGEIKIPVCIEDECNMELPPAALLFRSARQYVYGVLFSLAETQRKMERLAMRRRLPVEVPSVILKEWSAYKGKSPQTPELVSALTFREWTCPNLKKLWLGKAVEDKNRRMRAFLACMKSDTPSMLNPANVPTHLLLMCCVLRYMVQWPGGRILHRHELDTFLAQAVSTQLYEPDRLQELKIEKLDARGIQLAALFMSGVDTALFANDACGQPVPWEHCCPWIYFDGKLFQSKLIKAGRERVSLVELCDGQADLATKVEKMRQSILEGVNMNHPPPSALLPSPTFVPPMVPSLYPVSLYSRAMGSMPLPPQGRSRGFAGLHPIPPQGGKLEIAGMVVGQWAGSRSSRGRGSFGMQVVSVGGPGKGHGKEQTGRGSKGHKKGNKQGSSDGVSKSLELHQGRSRSQVNGNSGALIKEEKSDHRLPAPSQCALSRDSNECNNGNRYLPMNNREKNHLQEQKLETVAQRKED | – | – | 14 | 1

— patent US20230407373A1 (priority 2020, published 2023)
